Starred links: 1 amine or outer side, 2 acyl side, 3 side chain; linkers in the order of their positions; H or OH if unused. Non-standard residues stand in square brackets, D forms with d. Groups on a side chain read outwards from the residue. No end group written: not given here. *: point of attachment. C20 diacid = O=C(O)CCCCCCCCCCCCCCCCCCC(=O)*; C18 diacid = O=C(O)CCCCCCCCCCCCCCCCC(=O)*; γGlu = O=C(O)[C@H](CCC(=O)[*:2])N[*:1]; αMeF = C[C@](N)(Cc1ccccc1)C(=O)O; AEEA = NCCOCCOCC(=O)O; Aib = CC(C)(N)C(=O)O

The chains are these.
B1: Peptide 481 (peptide)
peptide: H[Aib]QGTFTSDVSK[αMeF]LDTK([AEEA-AEEA-γGlu-C20 diacid])RARDFVQWLLE[Aib]K-NH2
modifications: N-terminus assumed
SMILES: CC(C)C[C@H](NC(=O)[C@H](Cc1c[nH]c2ccccc12)NC(=O)[C@H](CCC(N)=O)NC(=O)[C@@H](NC(=O)[C@H](Cc1ccccc1)NC(=O)[C@H](CC(=O)O)NC(=O)[C@H](CCCNC(=N)N)NC(=O)[C@H](C)NC(=O)[C@H](CCCNC(=N)N)NC(=O)[C@H](CCCCNC(=O)COCCOCCNC(=O)COCCOCCNC(=O)CC[C@H](NC(=O)CCCCCCCCCCCCCCCCCCC(=O)O)C(=O)O)NC(=O)[C@@H](NC(=O)[C@H](CC(=O)O)NC(=O)[C@H](CC(C)C)NC(=O)[C@](C)(Cc1ccccc1)NC(=O)[C@H](CCCCN)NC(=O)[C@H](CO)NC(=O)[C@@H](NC(=O)[C@H](CC(=O)O)NC(=O)[C@H](CO)NC(=O)[C@@H](NC(=O)[C@H](Cc1ccccc1)NC(=O)[C@@H](NC(=O)CNC(=O)[C@H](CCC(N)=O)NC(=O)C(C)(C)NC(=O)[C@@H](N)Cc1c[nH]cn1)[C@@H](C)O)[C@@H](C)O)C(C)C)[C@@H](C)O)C(C)C)C(=O)N[C@@H](CC(C)C)C(=O)N[C@@H](CCC(=O)O)C(=O)NC(C)(C)C(=O)N[C@@H](CCCCN)C(N)=O
B2: Peptide 482 (peptide)
peptide: H[Aib]QGTFTSDVSK[αMeF]LESK([AEEA-AEEA-γGlu-C18 diacid])RAQDFVQWLL[Aib]E-OH
modifications: N-terminus assumed
SMILES: CC(C)C[C@H](NC(=O)[C@H](Cc1c[nH]c2ccccc12)NC(=O)[C@H](CCC(N)=O)NC(=O)[C@@H](NC(=O)[C@H](Cc1ccccc1)NC(=O)[C@H](CC(=O)O)NC(=O)[C@H](CCC(N)=O)NC(=O)[C@H](C)NC(=O)[C@H](CCCNC(=N)N)NC(=O)[C@H](CCCCNC(=O)COCCOCCNC(=O)COCCOCCNC(=O)CC[C@H](NC(=O)CCCCCCCCCCCCCCCCC(=O)O)C(=O)O)NC(=O)[C@H](CO)NC(=O)[C@H](CCC(=O)O)NC(=O)[C@H](CC(C)C)NC(=O)[C@](C)(Cc1ccccc1)NC(=O)[C@H](CCCCN)NC(=O)[C@H](CO)NC(=O)[C@@H](NC(=O)[C@H](CC(=O)O)NC(=O)[C@H](CO)NC(=O)[C@@H](NC(=O)[C@H](Cc1ccccc1)NC(=O)[C@@H](NC(=O)CNC(=O)[C@H](CCC(N)=O)NC(=O)C(C)(C)NC(=O)[C@@H](N)Cc1c[nH]cn1)[C@@H](C)O)[C@@H](C)O)C(C)C)C(C)C)C(=O)N[C@@H](CC(C)C)C(=O)NC(C)(C)C(=O)N[C@@H](CCC(=O)O)C(=O)O
B3: Peptide 484 (peptide)
peptide: H[Aib]QGTFTSDVSK[αMeF]LDTK([AEEA-AEEA-γGlu-C20 diacid])RAQDFVQWLL[Aib]E-OH
modifications: N-terminus assumed
SMILES: CC(C)C[C@H](NC(=O)[C@H](Cc1c[nH]c2ccccc12)NC(=O)[C@H](CCC(N)=O)NC(=O)[C@@H](NC(=O)[C@H](Cc1ccccc1)NC(=O)[C@H](CC(=O)O)NC(=O)[C@H](CCC(N)=O)NC(=O)[C@H](C)NC(=O)[C@H](CCCNC(=N)N)NC(=O)[C@H](CCCCNC(=O)COCCOCCNC(=O)COCCOCCNC(=O)CC[C@H](NC(=O)CCCCCCCCCCCCCCCCCCC(=O)O)C(=O)O)NC(=O)[C@@H](NC(=O)[C@H](CC(=O)O)NC(=O)[C@H](CC(C)C)NC(=O)[C@](C)(Cc1ccccc1)NC(=O)[C@H](CCCCN)NC(=O)[C@H](CO)NC(=O)[C@@H](NC(=O)[C@H](CC(=O)O)NC(=O)[C@H](CO)NC(=O)[C@@H](NC(=O)[C@H](Cc1ccccc1)NC(=O)[C@@H](NC(=O)CNC(=O)[C@H](CCC(N)=O)NC(=O)C(C)(C)NC(=O)[C@@H](N)Cc1c[nH]cn1)[C@@H](C)O)[C@@H](C)O)C(C)C)[C@@H](C)O)C(C)C)C(=O)N[C@@H](CC(C)C)C(=O)NC(C)(C)C(=O)N[C@@H](CCC(=O)O)C(=O)O
B4: Peptide 483 (peptide)
peptide: H[Aib]QGTFTSDVSK[αMeF]LDTK([AEEA-AEEA-γGlu-C18 diacid])RAQDFVQWLL[Aib]E-OH
B5: Peptide 476 (peptide)
peptide: H[Aib]QGTFTSDVSK[αMeF]LDTK([AEEA-AEEA-γGlu-C18 diacid])RAQDFVRWLLA[Aib]G-NH2
modifications: N-terminus assumed
SMILES: CC(C)C[C@H](NC(=O)[C@H](CC(C)C)NC(=O)[C@H](Cc1c[nH]c2ccccc12)NC(=O)[C@H](CCCNC(=N)N)NC(=O)[C@@H](NC(=O)[C@H](Cc1ccccc1)NC(=O)[C@H](CC(=O)O)NC(=O)[C@H](CCC(N)=O)NC(=O)[C@H](C)NC(=O)[C@H](CCCNC(=N)N)NC(=O)[C@H](CCCCNC(=O)COCCOCCNC(=O)COCCOCCNC(=O)CC[C@H](NC(=O)CCCCCCCCCCCCCCCCC(=O)O)C(=O)O)NC(=O)[C@@H](NC(=O)[C@H](CC(=O)O)NC(=O)[C@H](CC(C)C)NC(=O)[C@](C)(Cc1ccccc1)NC(=O)[C@H](CCCCN)NC(=O)[C@H](CO)NC(=O)[C@@H](NC(=O)[C@H](CC(=O)O)NC(=O)[C@H](CO)NC(=O)[C@@H](NC(=O)[C@H](Cc1ccccc1)NC(=O)[C@@H](NC(=O)CNC(=O)[C@H](CCC(N)=O)NC(=O)C(C)(C)NC(=O)[C@@H](N)Cc1c[nH]cn1)[C@@H](C)O)[C@@H](C)O)C(C)C)[C@@H](C)O)C(C)C)C(=O)N[C@@H](C)C(=O)NC(C)(C)C(=O)NCC(N)=O
B6: Peptide 479 (peptide)
peptide: H[Aib]QGTFTSDVSK[αMeF]LDTK([AEEA-AEEA-γGlu-C20 diacid])RAQDFVRWLLE[Aib]K-NH2
modifications: N-terminus assumed
SMILES: CC(C)C[C@H](NC(=O)[C@H](Cc1c[nH]c2ccccc12)NC(=O)[C@H](CCCNC(=N)N)NC(=O)[C@@H](NC(=O)[C@H](Cc1ccccc1)NC(=O)[C@H](CC(=O)O)NC(=O)[C@H](CCC(N)=O)NC(=O)[C@H](C)NC(=O)[C@H](CCCNC(=N)N)NC(=O)[C@H](CCCCNC(=O)COCCOCCNC(=O)COCCOCCNC(=O)CC[C@H](NC(=O)CCCCCCCCCCCCCCCCCCC(=O)O)C(=O)O)NC(=O)[C@@H](NC(=O)[C@H](CC(=O)O)NC(=O)[C@H](CC(C)C)NC(=O)[C@](C)(Cc1ccccc1)NC(=O)[C@H](CCCCN)NC(=O)[C@H](CO)NC(=O)[C@@H](NC(=O)[C@H](CC(=O)O)NC(=O)[C@H](CO)NC(=O)[C@@H](NC(=O)[C@H](Cc1ccccc1)NC(=O)[C@@H](NC(=O)CNC(=O)[C@H](CCC(N)=O)NC(=O)C(C)(C)NC(=O)[C@@H](N)Cc1c[nH]cn1)[C@@H](C)O)[C@@H](C)O)C(C)C)[C@@H](C)O)C(C)C)C(=O)N[C@@H](CC(C)C)C(=O)N[C@@H](CCC(=O)O)C(=O)NC(C)(C)C(=O)N[C@@H](CCCCN)C(N)=O
B7: Peptide 477 (peptide)
peptide: H[Aib]QGTFTSDVSK[αMeF]LDTK([AEEA-AEEA-γGlu-C20 diacid])RAQDFVRWLLA[Aib]G-NH2
modifications: N-terminus assumed
SMILES: CC(C)C[C@H](NC(=O)[C@H](CC(C)C)NC(=O)[C@H](Cc1c[nH]c2ccccc12)NC(=O)[C@H](CCCNC(=N)N)NC(=O)[C@@H](NC(=O)[C@H](Cc1ccccc1)NC(=O)[C@H](CC(=O)O)NC(=O)[C@H](CCC(N)=O)NC(=O)[C@H](C)NC(=O)[C@H](CCCNC(=N)N)NC(=O)[C@H](CCCCNC(=O)COCCOCCNC(=O)COCCOCCNC(=O)CC[C@H](NC(=O)CCCCCCCCCCCCCCCCCCC(=O)O)C(=O)O)NC(=O)[C@@H](NC(=O)[C@H](CC(=O)O)NC(=O)[C@H](CC(C)C)NC(=O)[C@](C)(Cc1ccccc1)NC(=O)[C@H](CCCCN)NC(=O)[C@H](CO)NC(=O)[C@@H](NC(=O)[C@H](CC(=O)O)NC(=O)[C@H](CO)NC(=O)[C@@H](NC(=O)[C@H](Cc1ccccc1)NC(=O)[C@@H](NC(=O)CNC(=O)[C@H](CCC(N)=O)NC(=O)C(C)(C)NC(=O)[C@@H](N)Cc1c[nH]cn1)[C@@H](C)O)[C@@H](C)O)C(C)C)[C@@H](C)O)C(C)C)C(=O)N[C@@H](C)C(=O)NC(C)(C)C(=O)NCC(N)=O
B8: Peptide 478 (peptide)
peptide: H[Aib]QGTFTSDVSK[αMeF]LDTK([AEEA-AEEA-γGlu-C18 diacid])RAQDFVRWLLE[Aib]K-NH2
modifications: N-terminus assumed
SMILES: CC(C)C[C@H](NC(=O)[C@H](Cc1c[nH]c2ccccc12)NC(=O)[C@H](CCCNC(=N)N)NC(=O)[C@@H](NC(=O)[C@H](Cc1ccccc1)NC(=O)[C@H](CC(=O)O)NC(=O)[C@H](CCC(N)=O)NC(=O)[C@H](C)NC(=O)[C@H](CCCNC(=N)N)NC(=O)[C@H](CCCCNC(=O)COCCOCCNC(=O)COCCOCCNC(=O)CC[C@H](NC(=O)CCCCCCCCCCCCCCCCC(=O)O)C(=O)O)NC(=O)[C@@H](NC(=O)[C@H](CC(=O)O)NC(=O)[C@H](CC(C)C)NC(=O)[C@](C)(Cc1ccccc1)NC(=O)[C@H](CCCCN)NC(=O)[C@H](CO)NC(=O)[C@@H](NC(=O)[C@H](CC(=O)O)NC(=O)[C@H](CO)NC(=O)[C@@H](NC(=O)[C@H](Cc1ccccc1)NC(=O)[C@@H](NC(=O)CNC(=O)[C@H](CCC(N)=O)NC(=O)C(C)(C)NC(=O)[C@@H](N)Cc1c[nH]cn1)[C@@H](C)O)[C@@H](C)O)C(C)C)[C@@H](C)O)C(C)C)C(=O)N[C@@H](CC(C)C)C(=O)N[C@@H](CCC(=O)O)C(=O)NC(C)(C)C(=O)N[C@@H](CCCCN)C(N)=O

One assay deals with human glucagon receptor (human, UniProt P47871). Kind of assay: cell-based or functional assay.
Consider B1, for which the “cAMP production EC50” value is 0.35 nM.
With B2, the “cAMP production EC50” value worked out at 0.691 nM.
Same read-out and setting: to B3 belongs 0.169 nM.
Same read-out and setting: to B4 belongs 0.169 nM.
Take B5: the “cAMP production EC50” value came to 0.104 nM.
As for B6, the “cAMP production EC50” value worked out at 0.207 nM.
Still for that read-out and setting: for B7 the value was 0.117 nM.
On the same count and under the same terms, to B8 belongs 0.19 nM.

Another assay has as its target human GLP-1 receptor (human, UniProt P43220). Kind of assay: cell-based or functional assay.
For the molecule B1, the “cAMP production EC50” value was determined as 0.0522 nM.
On the same count and under the same terms, for B2 the value was 0.19 nM; for B3, 0.339 nM; for B4, 0.178 nM.
Still for that read-out and setting: for B5 the value was 0.0573 nM; for B6, 0.0342 nM.
Turning to B7, the “cAMP production EC50” value worked out at 0.0541 nM.
With B8, the “cAMP production EC50” value was 0.00918 nM.

The values above are taken from patent US12630600B2 (MEDIMMUNE LIMITED, priority 2022, dated 2026).
